This data set has as its system E. necator. Kind of data set: Leaf disc assay, dry inoculum (settling tower), decrease in disease severity / hyphal growth (Example 2). The note with it: decrease in disease severity (hyphal growth) relative to untreated control, value ± SE; for % decrease =/− SE TP1: time point 1 (untreated control hyphal growth ≥50%); for % decrease =/− SE TP2: time point 2.

Consider 7 molecules from US12077763B2, “RNA-based control of powdery mildew” (Greenlight Biosciences, Inc., priority 2021, dated 2024).

B1: GS3359 (nucleic acid)
sense: UUGAGAACAUGACCGAGGCUACUCUAAUCUUAGAUAUGUUUCUCAACAACGAGGGAGCCUUUAACUAUCCUCACAUUUCCUUUCGCAAAAAUUUCCACCCUUUCAACUUCUCUAAAAACAAUUGAUUUGCUUAGACCAUAAGAAUAUUUCAAUAUGAUUAAAACUGAAGCUAAUGGUGAAGGAUUUGAUAUUUCUAUUCCAGAGGUAUCAGUAACUGAGGAACGAAAGCCAUUUGUGCAAAAGGAAGGAUAUCUCAAAUUAAAGCAAGCAGGAACUGCAAGAGCGAAUGAAGCCGCUUCAUACGAAGCUCCACGUGGCACUGUAAAAGGAGAUUACGCAUACCGUCAUCGACAUCAGACAGUACUCCAACAGCAUAUAGCCUUUUUUGAUCAUGAUAA
antisense: UUAUCAUGAUCAAAAAAGGCUAUAUGCUGUUGGAGUACUGUCUGAUGUCGAUGACGGUAUGCGUAAUCUCCUUUUACAGUGCCACGUGGAGCUUCGUAUGAAGCGGCUUCAUUCGCUCUUGCAGUUCCUGCUUGCUUUAAUUUGAGAUAUCCUUCCUUUUGCACAAAUGGCUUUCGUUCCUCAGUUACUGAUACCUCUGGAAUAGAAAUAUCAAAUCCUUCACCAUUAGCUUCAGUUUUAAUCAUAUUGAAAUAUUCUUAUGGUCUAAGCAAAUCAAUUGUUUUUAGAGAAGUUGAAAGGGUGGAAAUUUUUGCGAAAGGAAAUGUGAGGAUAGUUAAAGGCUCCCUCGUUGUUGAGAAACAUAUCUAAGAUUAGAGUAGCCUCGGUCAUGUUCUCAA
Consider B1, for which the “% decrease =/− SE TP1” value turned out to be 14 ± 4%.

B2: GS3445 (nucleic acid)
sense: GAAGACCAAGCUAGAGCGAGUACAAAAACAUCCCGCAACAUAUCAAUGUCAUCUUUGCCCCAAAAAAUUUACUCGCGCCUAUAAUCUUCGCUCCCAUCUCCGAACGCAUACAAACGAGCGACCUUUUAUCUGUUCCAAGUGCACAAAAGCUUUUGCGCGUCAGCAUGAUCGAAAACGACAUGAGAGCCUACAUUCAGGUGAAAAAAGAUUUAUUUGUAGAGGAGAACUUAAAAAUGGUGGUCAUUGGGGCUGUGGCCGUCCCUUUGCUCGUGCAGAUGCCUUAAAUCGACAUUUCCGAUCGGAAGCAGGCCGAGCUUGCAUAAAUCCACUCAUAGAGGAAGACGAAUCUGAAAAUCUACGGCUAUGGAAUGAGAAACAAAUUCAAAAUAUUAAACAAA
antisense: UUUGUUUAAUAUUUUGAAUUUGUUUCUCAUUCCAUAGCCGUAGAUUUUCAGAUUCGUCUUCCUCUAUGAGUGGAUUUAUGCAAGCUCGGCCUGCUUCCGAUCGGAAAUGUCGAUUUAAGGCAUCUGCACGAGCAAAGGGACGGCCACAGCCCCAAUGACCACCAUUUUUAAGUUCUCCUCUACAAAUAAAUCUUUUUUCACCUGAAUGUAGGCUCUCAUGUCGUUUUCGAUCAUGCUGACGCGCAAAAGCUUUUGUGCACUUGGAACAGAUAAAAGGUCGCUCGUUUGUAUGCGUUCGGAGAUGGGAGCGAAGAUUAUAGGCGCGAGUAAAUUUUUUGGGGCAAAGAUGACAUUGAUAUGUUGCGGGAUGUUUUUGUACUCGCUCUAGCUUGGUCUUC
Consider B2, for which the “% decrease =/− SE TP1” value is 14 ± 9% and the “% decrease =/− SE TP2” value is reported as 16 ± 10%.

B3: GS1799: dsRNA trigger SEQ ID NO 193; gene target Transposon Tf2-6 polyprotein (nucleic acid)
DNA: GTAGCGAGGATGGACACTGGAGAACGGTTCGAAGTATACTTGACAAATTACGAAAAGCTGGGCTATATCTCGATATTGATAAATGTGAGTTTTTATGTAAAGAAGTCAAATATTTGGGGTTTATTGTGAAAGCTGGTAAAAGTGTGGCCGTTGATCAATCGAAGGTGAAGGCCATTCTGGAGTGGGAAGCGCCAACTACGGTTAGAGGGGTAAGATCATTTCTCGGATTCGCCAACTTCTATCGGTGCTTTATTAAGGGATTTTCCGACATTACATCACCCCTAGTTGCCCTGACGAAAAAAAAGGTGGAATGGCGATGGGGGCGTGACGAAAATGATGCGTTTGAAAGGCTCAAAGAAATATTCTCATCACAGCCTGTTTTAGCACAGTGGGATCCAGAGAAGGAAACAATTTTGGAAGCTGATAGTTCTGGCTTTGCAATTGGTGGTTGTCTCTCACAGGTGGATGAACACGGCCAAATAAGACCTGTGGCTTATTTCTCGAAGAAGTTAAATAGTGCCGAAGCTAATTACCCAATCCATGACAAAGAATTACACGCAATAGTCACGTGCTTAAAAGAATGGAAACCAGAGCTAAT
On to B3, for which the “% decrease =/− SE TP1” value was 16 ± 5% and the “% decrease =/− SE TP2” value was determined as 8 ± 6%.

B4: GS3362 (nucleic acid)
sense: UACCCGUCUGCAACAGGUACAGGUGGUUACGCAUCGCCAACAGGGACCAGUUACCCUACACCUACUGGAGGUUACUCUGAAGAGCCCUACCACUAUAAAGGUGUCAAGCUAGGUCAUUGAGAGGAUUGAGUUACGAAAUUUGAUUGCAGCCACGCCUUCGACUUCAACCGAGAAGAGUUCCAAUCUCCCUCUUAGACGCAGGACUACUCUCACGAUACUUCUGUCUCUACUUCUUCUCAUGAGCACGCUAAUACUCUCUAAGCCUCCGUUGAUGUGUUGAAAGACAGGCACCUCAGUUUUGAUUCUAUUCAGCUCGGCAAACAUGUUGUGUACAUUCAUAGACUGAAUUUCUUUUUUAUUAUUUUUUUCCAAAUACACUCUUCCUGGAAAAAGAAGCCCU
antisense: AGGGCUUCUUUUUCCAGGAAGAGUGUAUUUGGAAAAAAAUAAUAAAAAAGAAAUUCAGUCUAUGAAUGUACACAACAUGUUUGCCGAGCUGAAUAGAAUCAAAACUGAGGUGCCUGUCUUUCAACACAUCAACGGAGGCUUAGAGAGUAUUAGCGUGCUCAUGAGAAGAAGUAGAGACAGAAGUAUCGUGAGAGUAGUCCUGCGUCUAAGAGGGAGAUUGGAACUCUUCUCGGUUGAAGUCGAAGGCGUGGCUGCAAUCAAAUUUCGUAACUCAAUCCUCUCAAUGACCUAGCUUGACACCUUUAUAGUGGUAGGGCUCUUCAGAGUAACCUCCAGUAGGUGUAGGGUAACUGGUCCCUGUUGGCGAUGCGUAACCACCUGUACCUGUUGCAGACGGGUA
Regarding B4, the “% decrease =/− SE TP1” value worked out at 14 ± 4%.

B5: GS3360 (nucleic acid)
sense: CAGUGCUCUCGCAGCAGGCCAUUUAGUCAAGAGCCAUAUGGCACAUAACAGAAGUGCUCCUAUUACAAGAAGUAAUACACCUGCUCAGAUUAGCACACACCCAUCAAUGAUAUCAACAAAUAGCAUGAGAGAAAAAUAUUGAGAUUUGAAAUUCUAAUUGUGUAAAUGAGCUCAGCUAUAUUGAAAAUAAAUUGGUAAUCUAAUAUAGAGGUAGAACUAGUUCGAUUUUUAUACUCAUUAAAAAAAGGAACUAAUAUUGGUAAAGGGUUAAGCUAUGAAAUUAGCUAUCCUUUUUUUUCCUAUUUAUUGAAAA
antisense: UUUUCAAUAAAUAGGAAAAAAAAGGAUAGCUAAUUUCAUAGCUUAACCCUUUACCAAUAUUAGUUCCUUUUUUUAAUGAGUAUAAAAAUCGAACUAGUUCUACCUCUAUAUUAGAUUACCAAUUUAUUUUCAAUAUAGCUGAGCUCAUUUACACAAUUAGAAUUUCAAAUCUCAAUAUUUUUCUCUCAUGCUAUUUGUUGAUAUCAUUGAUGGGUGUGUGCUAAUCUGAGCAGGUGUAUUACUUCUUGUAAUAGGAGCACUUCUGUUAUGUGCCAUAUGGCUCUUGACUAAAUGGCCUGCUGCGAGAGCACUG
Regarding B5, the “% decrease =/− SE TP1” value came to 36 ± 4% and the “% decrease =/− SE TP2” value stood at 30 ± 5%.

B6: GS3358 (nucleic acid)
sense: UUGGUACUAUGGCCAGGGUCAAUUCAAUUCAAUUUUUUUCUAUCAAAUAAAAUUAAAUCAAAAUAGUUUUCAAUCCAAUCUAACCCAAUCUUAAUCUUAAAAUGUAACUUCAAACAUUGUGAUUCAAGUACUAAUCACACGAGAAACUAGCAACGUUUGAUCUCGCUUUUCGAUCUACUUUAGGUACUUGAUGAAAUUUUCAAAGAUAUUUUGUCAUAAAACCAGUCACUAAGCUUCUUUGCUAUAUAAUUGCACUACGCGACGUCAACAGAUGCUCUUUUCACACUCCUAGUUAUUAAAGCAAUUGAAACAUCUUCUAACUAUAUACAACUUGAAUAUAACUCCAGAUUUGAAUAUAUUCUCCACCAAAAUUUAAUUAGGUUUGCAAUAAAUU
antisense: AAUUUAUUGCAAACCUAAUUAAAUUUUGGUGGAGAAUAUAUUCAAAUCUGGAGUUAUAUUCAAGUUGUAUAUAGUUAGAAGAUGUUUCAAUUGCUUUAAUAACUAGGAGUGUGAAAAGAGCAUCUGUUGACGUCGCGUAGUGCAAUUAUAUAGCAAAGAAGCUUAGUGACUGGUUUUAUGACAAAAUAUCUUUGAAAAUUUCAUCAAGUACCUAAAGUAGAUCGAAAAGCGAGAUCAAACGUUGCUAGUUUCUCGUGUGAUUAGUACUUGAAUCACAAUGUUUGAAGUUACAUUUUAAGAUUAAGAUUGGGUUAGAUUGGAUUGAAAACUAUUUUGAUUUAAUUUUAUUUGAUAGAAAAAAAUUGAAUUGAAUUGACCCUGGCCAUAGUACCAA
Consider B6, for which the “% decrease =/− SE TP1” value is reported as 6 ± 4%.

B7: GS3361 (nucleic acid)
sense: AAUAAGUGUCUGGAUUGUUGAAUGGGAUUCUUUUUAGUCGAUCAAUUUCAAUUAACUCAUAACGCAGAAAUUUCUUAAAAUUGAACGAUUUAUAGGAACCGAUGUGAAAUUUUCUUCAAUCUCCAUGUCAAUCGCAGAUGUGGGCAAAAAAGAUUGGGAAGAGAAUUCUUAGUUAUAUUUCAUUUGAAUACUAUUGGGGUAAUGCAUGUCCAAAGAGUCUCGUACCAAGAGAUACCUUUAUCUGGAAAUAAUUAGAAGAUUUACCCGUCUUACCUUGAUGAAUUGUGUGUUAGAGAUACACCAUGGCUAAGAUAUUAAUAUCUAUUUAGUUUGGGAAGUUGAUGACGAUACAUCACAGUUCUCUGUAAAUUUUGUUAUUUCCUCUAAUAUCAUUAA
antisense: UUAAUGAUAUUAGAGGAAAUAACAAAAUUUACAGAGAACUGUGAUGUAUCGUCAUCAACUUCCCAAACUAAAUAGAUAUUAAUAUCUUAGCCAUGGUGUAUCUCUAACACACAAUUCAUCAAGGUAAGACGGGUAAAUCUUCUAAUUAUUUCCAGAUAAAGGUAUCUCUUGGUACGAGACUCUUUGGACAUGCAUUACCCCAAUAGUAUUCAAAUGAAAUAUAACUAAGAAUUCUCUUCCCAAUCUUUUUUGCCCACAUCUGCGAUUGACAUGGAGAUUGAAGAAAAUUUCACAUCGGUUCCUAUAAAUCGUUCAAUUUUAAGAAAUUUCUGCGUUAUGAGUUAAUUGAAAUUGAUCGACUAAAAAGAAUCCCAUUCAACAAUCCAGACACUUAUU
B7: the “% decrease =/− SE TP1” value came to 16 ± 3%.
